Measurements reported in doi:10.1101/2025.09.04.674342, “Tandem association of CLOCK:BMAL1 complexes on DNA enables recruitment of CBP/p300 through multivalent interactions” (bioRxiv, 2025).
“And” between values parts separate entries of the source, which are not always exact repeats. Equal entries are not always repeated.

Assays:
[1] = molecular target: BMAL1 TAD L606A/L607A (residues 579–626) (mouse) (UniProt Q9WTL8); experiment: NMR titration; 15N-1H HSQC of 100 μM 15N BMAL1 TAD WT or L606A/L607A with stepwise additions of CBP KIX (WT or 3mut), TAZ1 or TAZ2; 25°C; 10 mM MES pH 6.5, 50 mM NaCl, 10% D2O; KD from fits of concentration-dependent CSPs, apparent
[2] = molecular target: human histone octamer in the nucleosome core particle (Widom 601 DNA with tandem E-boxes) (human) (UniProt P04908); experiment: mass photometry; NCP tandem 6bp 10 nM with CLOCK:BMAL1 bHLH-PAS-AB 60 nM (1:6), 30 min at room temperature; 20 mM Tris-HCl pH 7.5, 100 mM KCl, 0.5 mM TCEP
[3] = molecular target: BMAL1 TAD (residues 579–626) (mouse) (UniProt Q9WTL8); experiment: NMR titration; 15N-1H HSQC of 100 μM 15N BMAL1 TAD WT or L606A/L607A with stepwise additions of CBP KIX (WT or 3mut), TAZ1 or TAZ2; 25°C; 10 mM MES pH 6.5, 50 mM NaCl, 10% D2O; KD from fits of concentration-dependent CSPs, apparent
Sequence of BMAL1 TAD (residues 579–626) (mouse) (Q9WTL8 585-632): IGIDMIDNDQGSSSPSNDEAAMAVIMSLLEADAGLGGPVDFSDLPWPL

Sequence of BMAL1 TAD L606A/L607A (residues 579–626) (mouse) (Q9WTL8 585-632 L612A/L613A): as the sequence (Q9WTL8 585-632) above, with L28A, L29A counted along it

Substance: CBP KIX domain (residues 586–672) (from UniProt P45481 586-672) (domain or fragment)
- Kd [1]: 190 µM

Substance: CLOCK:BMAL1 bHLH-PAS-AB heterodimer (from UniProt O08785 26-395; Q9WTL8-4 62-441) (complex)
- stoichiometry N [2]: 2 and 3

Substance: CBP KIX Y650A/A654Q/Y658A (3mut) (from UniProt P45481 586-672) (domain or fragment)
- Kd [3]: 160 µM
